Experimental data from PMC10533412 (Nature, 2023).

Biological target: the molecule itself
Experiment: SEC-MALS; single protein at 5 mg/ml, Superdex 200, 20 mM HEPES pH 7.5, 150 mM NaCl

B1: BTN2A1 B30.2 domain (domain or fragment, human)
chain: EELRWRRTFLHAVDVVLDPDTAHPDLFLSEDRRSVRRCPFRHLGESVPDNPERFDSQPCVLGRESFASGKHYWEVEVENVIEWTVGVCRDSVERKGEVLLIPQNGFWTLEMHKGQYRAVSSPDRILPLKESLCRVGVFLDYEAGDVSFYNMRDRSHIYTCPRSAFSVPVRPFFRLGCEDSPIFICPALTGANGVTVPEEGLTLHRVGTHQSL
notes: butyrophilin 2A1 (BTN2A1), human, intracellular B30.2 domain with the C-terminal tail; Homodimer by SEC-MALS and in the crystals; source: E. coli BL21 (DE3), purified (Ni-NTA, TEV cleavage, Ni-NTA or DEAE Sepharose)
- stoichiometry N: 2
